Assay results from patent publication US20230151091A1 (NEW YORK UNIVERSITY, published 2023).

Legend:
[1] = biological target: T1, mouse MuSK (mouse, UniProt Q61006 22-494, limits assumed); test: Biacore, MuSK on chip (200RU), 66.7 nM mAb, dissociation pH 7.4
T1 construct: Coated on ELISA plates or on the Biacore chip; also called full length mouse MuSK; mouse MuSK (in house produced in HEK293 cells)
T1 sequence (looked up): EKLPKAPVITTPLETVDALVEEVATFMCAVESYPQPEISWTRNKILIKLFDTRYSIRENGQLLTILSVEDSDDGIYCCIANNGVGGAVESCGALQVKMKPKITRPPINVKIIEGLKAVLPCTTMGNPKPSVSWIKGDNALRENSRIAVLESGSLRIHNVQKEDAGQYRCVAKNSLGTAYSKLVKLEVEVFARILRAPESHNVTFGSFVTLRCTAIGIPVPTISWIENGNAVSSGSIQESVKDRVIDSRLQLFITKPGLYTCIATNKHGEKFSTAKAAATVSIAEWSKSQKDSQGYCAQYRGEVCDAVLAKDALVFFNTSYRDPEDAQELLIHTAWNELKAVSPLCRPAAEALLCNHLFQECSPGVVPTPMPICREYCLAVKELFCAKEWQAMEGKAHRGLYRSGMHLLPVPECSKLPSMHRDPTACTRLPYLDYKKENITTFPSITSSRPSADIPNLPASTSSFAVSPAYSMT
Method in brief: (§1)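 Sensor chip coated in parallel with cynomolgus monkey, rat and mouse MuSK. Antibody applied at a single concentration; association and dissociation kinetic parameters calculated from the sensorgrams.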

[2] = biological target: T2, rat MuSK (rat, UniProt Q62838 22-494, limits assumed); test: as above
T2 construct: Coated on Biacore chip (200RU) or ELISA plate
T2 sequence (looked up): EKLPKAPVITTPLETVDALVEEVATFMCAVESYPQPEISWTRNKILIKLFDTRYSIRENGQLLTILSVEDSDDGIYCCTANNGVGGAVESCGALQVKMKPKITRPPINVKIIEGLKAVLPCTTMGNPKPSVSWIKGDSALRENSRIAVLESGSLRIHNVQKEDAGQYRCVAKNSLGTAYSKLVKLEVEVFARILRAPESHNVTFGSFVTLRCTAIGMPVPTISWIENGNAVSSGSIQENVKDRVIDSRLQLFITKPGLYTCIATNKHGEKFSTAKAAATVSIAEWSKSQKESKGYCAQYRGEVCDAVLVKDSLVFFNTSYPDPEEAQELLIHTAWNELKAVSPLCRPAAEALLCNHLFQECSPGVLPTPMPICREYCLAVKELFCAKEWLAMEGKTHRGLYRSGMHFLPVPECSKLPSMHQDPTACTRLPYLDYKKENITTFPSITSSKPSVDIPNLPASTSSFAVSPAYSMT
Method in brief: as §1

R0 [1]: 195 RU
koff [1]: 0.00061 s⁻¹
kon [1]: 1.13e+06 M⁻¹ s⁻¹
R0 [2]: 162 RU
koff [2]: 0.00186 s⁻¹
kon [2]: 1.14e+06 M⁻¹ s⁻¹
B1: 3B2 (antibody, V domains shown)
VH: ELQLVESGGGLVQPGGSLRLSCAASGFTFDDYGMSWVRQAPGKGLEWVSAIPWNGGSTYYKESVKGRFTISRDNAKKTLYLQMNSLKSEDTAVYYCAKRSGRIAFGALDAWGQGTLVTVSS
VL: QAVVTQEPSLSVSPGGTVTLTCGLSSGSVTSSNYPDWYQQTPGQAPRGLIYSTDSRHSGVPSRFSGSISGNKAALTITGAQSEDEADYYCGLYMYSGSKNYVFGGGTKLTVL
notes: human IgG1 with the LALA mutations (L234A, L235A); produced in HEK293 cells; also called 3B2 mAb; parental 3B2 Ab
